Test results as given in paper PMC7790862.

Biological target: HA-tagged human Junctophilin-2 with seven point mutations in the Joining region (Ad-mut^PG1JPH2) (human) (UniProt Q9BR39)
Assay: co-IP + proximity ligation

“L-type Ca2+ channel pore-forming subunit α1C (natural protein)” gave a percent reduction of the interaction against WT-JPH2 of 30 to 40%.
